Source: IntAct's records for PubMed 9891048

B1: DNA damage checkpoint control protein RAD17 (Saccharomyces cerevisiae), P48581 (parent)
chain: MRINSELANKFSASTVHLEHITTALSCLTPFGSKDDVLIFIDADGLSFVRENNHVIKIQLLLSRELFMSYSYRNETEDHMKLCVKINHILDSVSVMNRNSDDIVECTLSYDGHGSPFVLIFEDSFISERVEYSTYLIKDFDTNGLELDRERISFEAIIKGEALHSALKDLKEIGCKECYVYAKTEANDENVFALISKSQLGFSKIKLPSNRSILEKLQVFDGDSTTVIDGFAVIGFFDFTSFDKIRKSTKIASKVLFRMDVHGVLSVNILSQTDDVIITDTTRPSNNRPGSIRQLQLPKDYPGIVIEVCMLEKESIDEAAQTEIELLMETNELGNRNSFKKSTIRKRYGTDKGNETSNDNLLQLNGKKIKLPSEEENNKNRESEDEENHCKYPTKDIPIFF
partner: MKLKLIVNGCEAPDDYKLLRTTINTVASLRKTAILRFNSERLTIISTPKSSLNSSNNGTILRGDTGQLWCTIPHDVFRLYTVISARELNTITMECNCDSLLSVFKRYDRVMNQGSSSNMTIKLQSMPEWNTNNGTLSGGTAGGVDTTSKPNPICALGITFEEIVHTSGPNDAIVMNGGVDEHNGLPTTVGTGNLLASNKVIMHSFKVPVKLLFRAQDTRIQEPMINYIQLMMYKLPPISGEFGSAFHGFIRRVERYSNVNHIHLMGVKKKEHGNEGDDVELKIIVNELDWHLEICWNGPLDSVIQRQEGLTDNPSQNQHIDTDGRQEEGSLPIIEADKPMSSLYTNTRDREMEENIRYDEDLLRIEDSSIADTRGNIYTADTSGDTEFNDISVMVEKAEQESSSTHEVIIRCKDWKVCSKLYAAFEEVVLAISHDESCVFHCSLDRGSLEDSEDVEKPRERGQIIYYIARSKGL

Variants of: B1
Conditions: with mec3_yeast MEC3, Q02574

Variant	effect of a mutation on the interaction
MRINSELANKFSASTVHLEHITTALSCLTPFGSKDDVLIFIDADGLSFVRENNHVIKIQLLLSRELFMSYSYRNETEDHMKLCVKINHILDSVSVMNRNSDDIVECTLSYDGHGSPFVLIFEDSFISKRVEYSTYLIKDFDTNGLELDRERISFEAIIKGEALHSALKDLKEIGCKECYVYAKTEANDENVFALISKSQLGFSKIKLPSNRSILEKLQVFDGDSTTVIDGFAVIGFFDFTSFDKIRKSTKIASKVLFRMDVHGVLSVNILSQTDDVIITDTTRPSNNRPGSIRQLQLPKDYPGIVIEVCMLEKESIDEAAQTEIELLMETNELGNRNSFKKSTIRKRYGTDKGNETSNDNLLQLNGKKIKLPSEEENNKNRESEDEENHCKYPTKDIPIFF [E128K]	decreasing interaction
